Our source for the dH and Kd values is article PMC7221964, “Comparison of Molecular Recognition of Trimethyllysine and Trimethylthialysine by Epigenetic Reader Proteins” (Molecules, 2020).

Holding throughout (assay): ITC; 19 injections of histone peptide (0.3–1.2 mM) into reader protein (22–100 µM), 298.15 K, same buffer as used in size exclusion chromatography, one-site fit, 3–5 repeats
Settings in all cases: both partners purified
Background: In ITC the heat of successive injections is recorded.

Test [1] concerns the target BPTF PHD reader domain (human, UniProt Q12830 2865-3033).
Test [2] deals with T1, SGF29 tandem tudor domain (TTD) reader (human, UniProt Q96ES7 115-293).
T1 construct: SGF29, human, tandem tudor domain; also called SGF29TTD
T1 sequence: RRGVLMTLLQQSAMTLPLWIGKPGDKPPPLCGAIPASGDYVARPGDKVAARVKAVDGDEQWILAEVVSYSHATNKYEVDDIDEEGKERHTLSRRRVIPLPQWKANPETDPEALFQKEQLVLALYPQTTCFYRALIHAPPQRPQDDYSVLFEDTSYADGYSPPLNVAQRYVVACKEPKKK

Test [3] addresses T2, TAF3 PHD reader domain (human, UniProt Q5VWG9 855-915).
T2 sequence: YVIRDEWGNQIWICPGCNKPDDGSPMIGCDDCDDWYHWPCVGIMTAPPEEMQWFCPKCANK

Test [4] has as its target T3, KDM4A tandem tudor domain (TTD) reader (human, UniProt O75164 895-1011).
T3 construct: KDM4A, human, tandem tudor domain; also called KDM4ATTD
T3 sequence: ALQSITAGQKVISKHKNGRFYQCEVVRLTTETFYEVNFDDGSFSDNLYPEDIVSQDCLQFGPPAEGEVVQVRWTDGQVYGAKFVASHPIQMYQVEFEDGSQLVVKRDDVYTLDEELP

Test [5] addresses T4, KDM5A PHD3 reader domain (human, UniProt P29375 1609-1659).
T4 construct: KDM5A, human, third PHD zinc finger (PHD3)
T4 sequence: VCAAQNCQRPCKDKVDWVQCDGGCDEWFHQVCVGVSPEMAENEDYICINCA

Ends that are not written are not given here.

B1: 10-mer histone H3 peptide bearing trimethyllysine at position 4 (H3K4me3) (peptide)
peptide: ARTKQTARKS
modifications: trimethyllysine (Kme3) at position 4
notes: histone H3, residues 1-10, printed as ART(Kme3/KCme3)QTARKS; also called 1–10 H3K4me3; source: synthetic peptide (solid-phase peptide synthesis, preparative HPLC)
B1: the dH is -12.4 ± 0.1 kcal/mol in test [1]; -8 ± 0.1 kcal/mol in test [2]; -10.7 ± 0.1 kcal/mol in test [3]; -13 ± 0.2 kcal/mol in test [4]; -10.7 ± 0.1 kcal/mol in test [5]. Further, the Kd (commonly the equilibrium constant for the complex coming apart) in test [2] was 2600 ± 300 nM; in test [3], 84 ± 12 nM; in test [4] it was 6600 ± 800 nM; in test [5], 71 ± 8 nM.

B2: 10-mer histone H3 peptide bearing trimethylthialysine at position 4 (H3KC4me3) (peptide)
peptide: ARTCQTARKS
modifications: not fully specified (residue 4)
notes: histone H3, residues 1-10, printed as ART(Kme3/KCme3)QTARKS; position 4 is a cysteine alkylated to trimethylthialysine; The letter C at position 4 stands for the alkylated cysteine (trimethylthialysine), not a free cysteine; also called 1–10 H3KC4me3
Consider B2, for which the Kd in test [1] came to 3800 ± 500 nM; in test [2], 6100 ± 700 nM; in test [3] it was 42 ± 7 nM; in test [4], 3100 ± 600 nM; in test [5] it was 150 ± 200 nM. Moreover, the dH is -9 ± 0.1 kcal/mol in test [1]; -5.8 ± 0.1 kcal/mol in test [2]; -10.8 ± 0.1 kcal/mol in test [3]; -14.8 ± 0.2 kcal/mol in test [4]; -9.6 ± 0.1 kcal/mol in test [5].
